We go through 13 molecules from patent US20220220224A1 (Hoffmann-La Roche, published 2022).

A word on the koff: it is the rate constant with which the complex falls apart. Broadly, the kon is the second-order rate constant of association.

Substitutions are numbered along the chain they refer to. Names may count otherwise.

Test [1] concerns the target T1, recombinant biotinylated monomeric Fc fusion of human Folate Receptor 3 (hu FolR3 ECD-AcTev-Fcknob-Avi tag … (human, UniProt P0DOX5 223-449 = IgG part, biotin on the C-terminal Avi tag)).
T1 construct: also called FolR3-Fc
Put plainly: SPR Biacore, single injection on immobilized antigen-Fc. The procedure: (§1) Binding of FolR1 binders as IgG or in the T-cell bispecific format to different recombinant folate receptors (human FolR1, 2 and 3, murine FolR1 and cynomolgus FolR1; all as Fc fusions) was assessed by surface plasmon resonance (SPR). All SPR experiments were performed on a Biacore T200 at 25° C. with HBS-EP as running buffer (0.01 M HEPES pH 7.4, 0.15 M NaCl, 3 mM EDTA, 0.005% Surfactant P20, Biacore, Freiburg/Germany).
(§2) First the anti-FolR1 IgGs were analyzed by single injections (Table 1) to characterize their crossreactivity (to human, murine and cyno FolR1) and specificity (to human FolR1, human FolR2, human FolR3). Recombinant biotinylated monomeric Fc fusions of human, cynomolgus and murine Folate Receptor 1 (FolR1-Fc) or human Folate Receptor 2 and 3 (FolR2-Fc, FolR3-Fc) were directly coupled on a SA chip using the standard coupling instruction (Biacore, Freiburg/Germany). The immobilization level was about 300-400 RU. The IgGs were injected for 60 seconds at a concentration of 500 nM.

In test [2] the target is T2, recombinant biotinylated monomeric Fc fusion of human Folate Receptor 2 (hu FolR2 ECD-AcTev-Fcknob-Avi tag … (human, UniProt P0DOX5 223-449 = IgG part, biotin on the C-terminal Avi tag)).
T2 construct: also called FolR2-Fc
The test is described as above. As for the experimental part: as §1, §2

Test [3] concerns the target T3, recombinant biotinylated monomeric Fc fusion of human Folate Receptor 1 (huFolR1 ECD-AcTev-Fcknob-Avi tag … (human, UniProt P0DOX5 223-449 = IgG part, biotin on the C-terminal Avi tag)).
T3 construct: also called huFolR1-Fc; human FolR1-Fc
Put plainly: SPR Biacore, avidity (bivalent, apparent KD), antigen-Fc on SA chip. The procedure:
(§3) The avidity of the interaction between the anti-FolR1 IgGs or T cell bispecifics and the recombinant folate receptors was determined as described below (Table 41).
(§4) Recombinant biotinylated monomeric Fc fusions of human, cynomolgus and murine Folate Receptor 1 (FolR1-Fc) were directly coupled on a SA chip using the standard coupling instruction (Biacore, Freiburg/Germany). The immobilization level was about 300. […] The dissociation was monitored for 240 or 600 seconds. Bulk refractive index differences were corrected for by subtracting the response obtained on reference flow cell immobilized with recombinant biotinylated murine IL2 receptor Fc fusion. The binding curves resulting from the bivalent binding of the IgG or T cell bispecifics were approximated to a 1:1 Langmuir binding (even though it is a 1:2 binding) and fitted with that model to get an apparent KD representing the avidity of the bivalent binding. The apparent avidity constants for the interactions were derived from the rate constants of the fitting using the Bia Evaluation software (GE Healthcare). For low affinity kinetics with association and dissociation phases too fast to be fitted by the 1:1 Langmuir binding model, the steady state analysis model was applied using the Bia Evaluation software (GE Healthcare). The steady state analysis gives the KD of the binding reaction at equilibrium.
On the technique in general: In SPR one partner is held on a chip, and binding of the other changes the refractive index at the surface.

Test [4] deals with T4, recombinant biotinylated monomeric Fc fusion of cynomolgus Folate Receptor 1 (cy FolR1 ECD-AcTev-Fcknob-Avi … (cynomolgus, UniProt P0DOX5 223-449 = IgG part, biotin on the C-terminal Avi tag)).
T4 construct: also called cyFolR1-Fc; cyno FolR1
The description is as above. The procedure:
as §3, §4

The target in test [5] is T3, recombinant biotinylated monomeric Fc …. Put plainly: SPR Biacore, affinity (monovalent), antibody captured via anti-Fab. The procedure: The affinity of the interaction between the anti-FolR1 IgGs or the T cell bispecifics and the recombinant folate receptors was determined as described below (Table 42).
For affinity measurement, direct coupling of around 10000 resonance units (RU) of the anti-human Fab specific antibody (Fab capture kit, GE Healthcare) was performed on a CM5 chip at pH 5.0 using the standard amine coupling kit (GE Healthcare). Anti-FolR1 IgGs or T cell bispecifics were captured at 200 nM with a flow rate of 10 ul/min for 40 sec, the reference flow cell was left without capture. Dilution series (12.35 to 3000 nM) of human Folate Receptor 1 Fc fusion were passed on all flow cells at 30 μl/min for 240 sec to record the association phase. The dissociation phase was monitored for 300 s and triggered by switching from the sample solution to HBS-EP. The chip surface was regenerated after every cycle using a double injection of 60 sec 10 mM Glycine-HCl pH 1.5. Bulk refractive index differences were corrected for by subtracting the response obtained on the reference flow cell 1. The affinity constants for the interactions were derived from the rate constants by fitting to a 1:1 Langmuir binding using the Bia Evaluation software (GE Healthcare).

B1: 15H7 IgG (antibody, V domains shown)
VH: QVQLVQSGAEVKKPGASVKVSCKASGYTFTSYYMHWVRQAPGQGLEWMGIINPSGGSTSYAQKFQGRVTMTRDTSTSTVYMELSSLRSEDTAVYYCARNYYLFSTSFDYWGQGTLVTVSS
VL: QAVVTQEPSLTVSPGGTVTLTCGSSTGAVTTSNYANWVQEKPGQAFRGLIGGTNKRAPGTPARFSGSLLGGKAALTLSGAQPEDEAEYYCALWYSNLWVFGGGTKLTVL
notes: human IgG1
As to B1, the binding result in test [1] and in test [2] was “no binding (tested: 500 nM)” in each case.

B2: 16D5 IgG variant S35H/wt (HC/LC) (antibody, V domains shown)
VH: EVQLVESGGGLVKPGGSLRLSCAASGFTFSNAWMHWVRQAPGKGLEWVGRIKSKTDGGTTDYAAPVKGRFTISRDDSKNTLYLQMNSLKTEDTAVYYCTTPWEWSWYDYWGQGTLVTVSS
VL: B1 VL
notes: IgG
Take B2: in test [3], the Kd is 40 nM, the koff is 0.00568 s⁻¹ and the on-rate constant (kon) was 132000 M⁻¹ s⁻¹. Besides, in test [4], the Kd was 55 nM, the off-rate constant (koff) was 0.0124 s⁻¹ and the kon was 223000 M⁻¹ s⁻¹. Moreover, in test [5], the Kd turned out to be 1200 nM, the dissociation rate constant (koff) is 0.0113 s⁻¹ and the kon stood at 8960 M⁻¹ s⁻¹.

B3: 18D3 IgG (antibody, V domains shown)
VH: QVQLVQSGAEVKKPGASVKVSCKASGYTFTSYYMHWVRQAPGQGLEWMGIINPSGGSTSYAQKFQGRVTMTRDTSTSTVYMELSSLRSEDTAVYYCARNYYTGGSSAFDYWGQGTLVTVS
VL: B1 VL
notes: human IgG1
Take B3: the binding result in test [1] and in test [2] was “no binding (tested: 500 nM)” each time.

B4: 21D1 IgG (antibody, V domains shown)
VH: B1 VH with L102V, F103G, S104V, T105S, S106P
VL: B1 VL
notes: human IgG1
B4: the binding result in test [1] and in test [2] was “no binding (tested: 500 nM)” each time.

B5: 16D5 IgG variant W96Y/S93A (HC/LC) (antibody, V domains shown)
VH: not shown
VL: B1 VL with A2T, E40Q, F46P, A80V, S95A
notes: IgG
With B5, the values for the Kd in test [3], in test [4] and in test [5] were 30 nM, 30 nM and 420 nM, respectively. For the same molecule, the koff in test [3] came out at 0.0189 s⁻¹; in test [4] it was 0.0174 s⁻¹; in test [5], 0.0172 s⁻¹. Also, the kon in test [3] came to 655000 M⁻¹ s⁻¹; in test [4], 625000 M⁻¹ s⁻¹; in test [5], 40500 M⁻¹ s⁻¹.

B6: 16D5 IgG variant G49S/K53A (HC/LC) (antibody, V domains shown)
VH: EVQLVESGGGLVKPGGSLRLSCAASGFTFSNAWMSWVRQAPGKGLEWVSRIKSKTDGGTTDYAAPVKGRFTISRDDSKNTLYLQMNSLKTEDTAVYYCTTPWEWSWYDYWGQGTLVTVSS
VL: B1 VL with A2T, E40Q, F46P, K55A, A80V
notes: IgG
Regarding B6, the Kd came to 60 nM in test [3], 80 nM in test [4] and 1900 nM in test [5]. For the same molecule, the off-rate constant (koff) in test [3] was 0.0115 s⁻¹; in test [4], 0.0328 s⁻¹; in test [5], 0.0174 s⁻¹. In addition, the on-rate (kon) is 190000 M⁻¹ s⁻¹ in test [3], 393000 M⁻¹ s⁻¹ in test [4] and 9190 M⁻¹ s⁻¹ in test [5].

B7: 16A3 IgG (antibody, V domains shown)
VH: B1 VH with L102A, F103G, S104V, S106P
VL: B1 VL
notes: human IgG1
Turning to B7, the binding result in test [1] and in test [2] was “no binding (tested: 500 nM)” in each case.

B8: 16D5 IgG variant S35H/S93A (HC/LC) (antibody, V domains shown)
VH: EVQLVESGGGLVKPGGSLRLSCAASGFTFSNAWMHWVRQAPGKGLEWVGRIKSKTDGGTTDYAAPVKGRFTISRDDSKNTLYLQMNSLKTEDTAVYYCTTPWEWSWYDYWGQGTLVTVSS
VL: B1 VL with A2T, E40Q, F46P, A80V, S95A
notes: IgG
Regarding B8, in test [3], the Kd was 90 nM, the koff came to 0.022 s⁻¹ and the kon came to 243000 M⁻¹ s⁻¹. Moreover, in test [4], the Kd worked out at 110 nM, the koff worked out at 0.0677 s⁻¹ and the association rate constant (kon) was found to be 612000 M⁻¹ s⁻¹. In test [5], the Kd worked out at 1300 nM, the koff amounted to 0.0112 s⁻¹ and the on-rate constant (kon) came to 8430 M⁻¹ s⁻¹.

B9: 16D5 IgG variant S35H/K53A (HC/LC) (antibody, V domains shown)
VH: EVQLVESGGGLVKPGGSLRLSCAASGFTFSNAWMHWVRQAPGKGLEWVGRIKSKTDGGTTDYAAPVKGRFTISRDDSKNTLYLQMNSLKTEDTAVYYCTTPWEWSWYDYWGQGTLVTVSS
VL: B1 VL with A2T, E40Q, F46P, K55A, A80V
notes: IgG
Take B9: in test [3], the Kd was found to be 1400 nM, the koff is 0.0291 s⁻¹ and the kon was 21000 M⁻¹ s⁻¹. For the same molecule, in test [4], the Kd was determined as 1100 nM, the koff worked out at 0.0404 s⁻¹ and the kon is 34700 M⁻¹ s⁻¹.

B10: 16D5 IgG variant W96Y/wt (HC/LC) (antibody, V domains shown)
VH: not shown
VL: B1 VL
notes: IgG
With B10, the values for the Kd in test [3], in test [4] and in test [5] were 20 nM, 10 nM and 550 nM, respectively. In addition, the koff in test [3] came to 0.00213 s⁻¹; in test [4] it was 0.00211 s⁻¹; in test [5], 0.00544 s⁻¹. Further, the figures for the on-rate constant (kon) in test [3], in test [4] and in test [5] were 129000 M⁻¹ s⁻¹, 173000 M⁻¹ s⁻¹ and 9950 M⁻¹ s⁻¹, respectively.

B11: 16D5 IgG variant R50S/S93A (HC/LC) (antibody, V domains shown)
VH: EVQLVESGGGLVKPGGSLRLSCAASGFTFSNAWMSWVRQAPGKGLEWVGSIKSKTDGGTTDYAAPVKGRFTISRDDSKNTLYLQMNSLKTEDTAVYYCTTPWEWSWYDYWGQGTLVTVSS
VL: B1 VL with A2T, E40Q, F46P, A80V, S95A
notes: IgG
Regarding B11, the Kd in test [3] turned out to be 30 nM; in test [4], 20 nM; in test [5], 780 nM. The koff was determined as 0.00323 s⁻¹ in test [3], 0.0078 s⁻¹ in test [4] and 0.0123 s⁻¹ in test [5]. Also, the kon in test [3] is 125000 M⁻¹ s⁻¹; in test [4], 439000 M⁻¹ s⁻¹; in test [5] it was 15700 M⁻¹ s⁻¹.

B12: 16D5 IgG variant R50S/K53A (HC/LC) (antibody, V domains shown)
VH: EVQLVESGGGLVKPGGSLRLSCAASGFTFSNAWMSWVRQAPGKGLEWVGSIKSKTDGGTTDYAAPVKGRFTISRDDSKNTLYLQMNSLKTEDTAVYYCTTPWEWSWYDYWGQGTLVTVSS
VL: B1 VL with A2T, E40Q, F46P, K55A, A80V
notes: IgG
Consider B12, for which, in test [3], the Kd turned out to be 60 nM, the koff came to 0.0197 s⁻¹ and the on-rate constant (kon) stood at 328000 M⁻¹ s⁻¹. Moreover, in test [4], the Kd came out at 80 nM, the koff amounted to 0.0455 s⁻¹ and the kon was found to be 550000 M⁻¹ s⁻¹. In test [5], the Kd was 1800 nM, the koff turned out to be 0.0245 s⁻¹ and the on-rate constant (kon) worked out at 13500 M⁻¹ s⁻¹.

B13: 16D5 IgG variant G49S/S93A (HC/LC) (antibody, V domains shown)
VH: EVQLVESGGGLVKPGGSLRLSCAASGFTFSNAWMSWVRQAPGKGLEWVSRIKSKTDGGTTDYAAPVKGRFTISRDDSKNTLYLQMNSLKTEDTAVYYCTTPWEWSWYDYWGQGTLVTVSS
VL: B1 VL with A2T, E40Q, F46P, A80V, S95A
notes: IgG
For the molecule B13, in test [3], the Kd worked out at 20 nM, the koff was 0.00306 s⁻¹ and the kon is 152000 M⁻¹ s⁻¹. In addition, in test [4], the Kd came out at 20 nM, the koff came out at 0.00622 s⁻¹ and the association rate constant (kon) was 358000 M⁻¹ s⁻¹. In test [5], the Kd is 760 nM, the dissociation rate constant (koff) was determined as 0.00799 s⁻¹ and the kon worked out at 10500 M⁻¹ s⁻¹.
